Measurements reported in CN115521375A (INST PASTEUR SHANGHAI CAS, dated 2022).

How the values were obtained:
SARS-CoV-2原型株(Wt)假病毒的S蛋白 = SARS-CoV-2原型株(Wt)假病毒的S蛋白 (SARS-CoV-2, UniProt P0DTC2 14-1273); assay: cell-based or functional assay
SARS-CoV-2原型株NTD蛋白 = biological target: T1, SARS-CoV-2原型株NTD蛋白 (SARS-CoV-2, UniProt P0DTC2 16-294); assay: ELISA, coated antigen
T1 construct: range 16-294

SARS-CoV-2原型株RBD蛋白 [1] = biological target: T2, SARS-CoV-2原型株RBD蛋白 (SARS-CoV-2, UniProt P0DTC2 320-550); assay: ELISA, coated antigen
SARS-CoV-2原型株RBD蛋白 [2] = biological target: T2, SARS-CoV-2原型株RBD蛋白; assay: BLI, prototype RBD on the sensor, antibody in solution

B1: 单抗3H3 (antibody, V domains shown)
VH: QVQLQQPGAELVRPGASVKLSCKASGYSFTRFWMNWVKQRPGQGLEWIGMIHPSDSETRLNQKFKDKATLTVDKSSTTAYMQLSSPTSEDSAVYYCARKDYDYDAWFAYWGQGTLVTVSA
VL: DIVLTQSPASLAVSLGQRATISCRASKSVSASVYSYMHWYQQKPGQPPKLLIYLASSLESGVPARFSGSGSGTDFTLNIHPVEEEDAATYYCHHSRELPPAFGGGTKLEIKR
notes: also called 抗体3H3
SARS-CoV-2原型株(Wt)假病毒的S蛋白
  中和IC50, 假病毒中和试验: 0.083 µg/mL
SARS-CoV-2原型株NTD蛋白
  binding result: no binding
SARS-CoV-2原型株RBD蛋白 [1]
  binding result: no binding

B2: 单抗5G2 (antibody)
heavy: EVLLQQSGPELVKPGASVKIPCKASGYTFTDYNMDWVKQSHGKSLEWIGDINPNSGFIIYNQKFKGKASLTVDKSSSTAYMELRSLTSEDTAVYYCAREGYGNNFDYWGQGTTLSVSSAKTTPPSVYPLAPGCGDTTGSSVTLGCLVKGYFPESVTVTWNSGSLSSSVHTFPALLQSGLYTMSSSVTVPSSTWPSQTVTCSVAHPASSTTVDKKLEPSGPISTINPCPPCKECHKCPAPNLEGGPSVFIFPPNIKDVLMISLTPKVTCVVVDVSEDDPDVQISWFVNNVEVHTAQTQTHREDYNSTIRVVSTLPIQHQDWMSGKEFKCKVNNKDLPSPIERTISKIKGLVRAPQVYILPPPAEQLSRKDVSLTCLVVGFNPGDISVEWTSNGHTEENYKDTAPVLDSDGSYFIYSKLNMKTSKWEKTDSFSCNVRHEGLKNYYLKKTISRSPGK
light: DILLTQSPTILSVSPGERVSFSCRASQSIGTSIHWYQQRTKGSPRLLIKYASESISGIPSRFSGSGSGTDFTLSINSVESEDIGDYYCQQSYSWPTTFGAGTKLELK
notes: also called 抗体5G2
SARS-CoV-2原型株(Wt)假病毒的S蛋白
  半数抑制浓度(IC50), 假病毒中和试验: 0.293 µg/mL
SARS-CoV-2原型株RBD蛋白 [2]
  Kd: < 1 pM
